What all share (type): biochemical, Quillaja saponaria
Test [1] is described as follows: Experiment 6-1: specificity of rhamnosidases towards other rhamnose residues (C3 saccharide rhamnose, C28 saccharide rhamnose). Particulars: TBE 2%, pH 7.5, 30 degC, 18 h; LCMS/MS; negative controls 0.18, 0.17.
Test [2] in a line: Experiment 6-1: screening of rhamnosidases for derhamnosylation of saponins in treated bark extract (2%), QS-17 2296 to QS-18 2150 (PAR %). To be noted: TBE 2%, pH 7.5, 30 degC, 18 h; TIC peak area ratio percent of rhamnosylated starting saponin to derhamnosylated product, LCMS/MS; negative controls 4.876, 5.225.
The nature of test [3]: Experiment 6-1: screening of rhamnosidases for derhamnosylation of saponins in treated bark extract (2%), QS-17 2310 to QS-18 2164 (PAR %). To be noted: TBE 2%, pH 7.5, 30 degC, 18 h; TIC peak area ratio percent, LCMS/MS; negative controls 3.061, 2.429.
Test [4] can be described thus: Experiment 6-1: screening of rhamnosidases for derhamnosylation of saponins in treated bark extract (2%), desglucosyl-QS-17 2134 to QS-21 1988 (PAR %). To be noted: TBE 2%, pH 7.5, 30 degC, 18 h; TIC peak area ratio percent, LCMS/MS; negative controls 2.719, 2.158.

B1: 1048 (protein, listed as Klebsiella oxytoca)
chain: MSQAIQHNSQVMMTRHPNFLRTAEALRPALSRQAHPPIAVVEAHADAAALFGWRAEPVSTLAAFYQRELSSGDSVIIDFGSHYVGYLHFLCQSAGSPPDAPAHLQLTFGETLSEVCEPFSDYQGWLSSSWLQQQDLWLDVLPAEIDLPRRYCFRYLKVEVKAVSRKFRLQFTQIEVNAVTSASGACPAATTSDPQLRAIDNVAVLTLQNCMQEVFEDGPKRDRRLWLGDLRLQALVNDVTFARHDLVRRCLYLFAGHTREDGMVSANVFVQPDVIADDTFLFDYSLFFVDVLYNYLQSAEDMATARELWPTARRQVELALTRCDASGVVRDSDDWWVFIDWQASLNKQAAAQGVLIYCLQRAIWLAERFEPELAVSYRQRLQQLKSAALDALWDPQQGFYVSGARRQVSWASQIWLVLAEVGTPQQRREIMRNLEKNPPAVAMNTPYLRHHYIAALLQCGLRDEAIAQIKAYWGAMVDYGADTFWEIFDPAHPDFSPYGSKLINSYCHAWSCTPAWFIRQYGL
Regarding B1, in test [1], the “ratio PP/QS-21” value is 0.17. Further, the “QS-17 (PAR %)” value in test [2] worked out at 5.007%. In addition, in test [3], the “Peak57 (PAR %)” value is on record as 2.465%. Also, in test [4], the “Peak75 (PAR %)” value is listed as 2.441%.

B2: 1020 (protein, listed as Rhodonellum psychrophilum)
chain: MKSLSKILTTVTLLLAVFACEKKPAEIVLFSMMDGVEGLSGKTEYLASPYVTAGDRVYMVGHQDGSFPDLGWHVEGEMGGIWNHPIKLMDGFTNAIEIEGNRFCLDNASAFINYPFANKHEFKNSVPGLEVERFQFVPDGKQGLVIEYLFKNVDKSKKSFVFEFDGHTDLMPVWLGDRAGMIDHVDNLVFDDQRQAWRGKDEGNEWYVLFGANQTASHSQGDSSLCNYFPQGKGKSAKLSYEMELSANGEGSLKFFIAGSYSGLDDVQKTFDLIKTHPETFLKDKRTNYDRIASLSKITIPDKELEKTFEWVKYNTEWLVRDIPEVGRGLGAGMPDYPWWFGVDNEYTLKGAIATGRKDLVYATVDLIHKLSVQENDNGKIVHEVSTNGVVFNPGNINETPQFASLIWYVYQWTGDKAFLEKYYPTIKKGLVWLMEENDKDGNLFPDGYGMMEIHGLESEMIDVAVYTQKAFADAAQMALLMAEPEVARSYQQTADLMKAKINTDFWVESANSYADFIGTAAETFPLVDAAIIRADTLGKPWAVEELKLLRKKLSTYPRNKKQGFVLFHNWVVNTPMEMGIADPEKAIKALDKGSKFVNPFGVFVTGIDRDEASQSEDGSFTGSKVFSYTGAVMTLPTGVQAISENNYGRPDQALAYLQMMVKSFGFALPGSIYEVSPDYGMMAQAWNLYSFGVPIVTQFFGIQPDAGNKVIHISTQMPSDWDSAKIEKVLIGDNVLTLSFLRVEGEIQLQINQTKGDWQIDFVFPTGKYNVWKVGGKEVEKTRVGNQEVFRTSGTSISASFK
Regarding B2, the “ratio PP/QS-21” value in test [1] was 0.17. Further, in test [2], the “QS-17 (PAR %)” value was 5.058%. Besides, the “Peak57 (PAR %)” value in test [3] amounted to 3.288%. For the same molecule, in test [4], the “Peak75 (PAR %)” value came out at 2.360%.

B3: 1000 (protein, listed as Aspergillus terreus)
chain: MALSISQVAFEHHRTALGIGETQPRVSWRFDGNVSDWEQRAYEIEVKRAGHDADVFRSESSDSVLVPWPSSPLQSGEEATVRVRSFGSDGQHDTPWSDAVTVEPGLLTPDDWHDAVVIASDRPTEVDATHRPIQFRKEFSVDDSYVSARLYITALGLYEARINDQRVGDHVMAPGWQSYQYRHEYNTYDVTDLLKQGPNAIGVTVGEGWYSGRIGYDGGKRNIYGDTLGLLSLLVVTKSDGSKLYIPSDSSWKSSTGPIISSEIYDGEEYDSRLEQKGWSQVGFNSTGWLGTHELSFPKERLASPDGPPVRRVAEHKLANVFSSASGKTVLDFGQNLVGWLRIRVKGPKGQTIRFVHTEVMENGEVATRPLRQAKATDHFTLSGEGVQEWEPSFTYHGFRYVQVDGWPADTPLDENSVTAIVVHSDMERTGYFECSNPLISKLHENILWSMRGNFFSIPTDCPQRDERLGWTGDIHAFSRTANFIYDTAGFLRAWLKDARSEQLNHSYSLPYVIPNIHGNGETPTSIWGDAIVGVPWQLYESFGDKVMLEEQYGGAKDWVDKGIVRNDVGLWDRSTFQWADWLDPKAPADDPGDATTNKYLVSDAYLLHSTDMLANISTSLSKGEEASNYTEWHAKLTKEFQKAWITSNGTMANETQTGLALPLYFDLFPSAEQAQSAAKRLVNIIKQNDYKVGTGFAGTHLLGHTLSKYGESDAFYSMLRQTEVPSWLYQVVMNGTTTWERWDSMLPNGSINPGQMTSFNHYAVGSVGSWLHEVIGGLSPAEPGWRRINIEVVPGGDLQQASTKFLTPYGMASTKWWLDGQDQSCGGFDFHLVAEVPPNTRATVVLPGKGGEKVDVGSGVHEYHVRCVKL
For B3, the “ratio PP/QS-21” value in test [1] is reported as 0.16. Besides, in test [2], the “QS-17 (PAR %)” value worked out at 5.010%. Further, the “Peak57 (PAR %)” value in test [3] is given as 3.119%. Also, in test [4], the “Peak75 (PAR %)” value is 2.788%.

B4: 1065 (protein, listed as Chitinophaga pinensis)
chain: MRIILTAAFLLITSIVSAQYNAWKGSWITNTEDTTATKAPYLRKTFTLDKKVVSATAYVAGVGYHIVFVNGKPVTDAVLEQAYTRYDKRLLYKVYDVTALLSRKGTQSIAAELGNGWYNIQSHAVWGFQNAPWRKTPRLLLDLVIRYDDGTTETIATDNSWKCATGPSQFNCLYSGEIYDARQEVAGWNQTAFNDAGWKQVLLTSSPGGALHEQIMPSIKVIRRIKPVSMKNLGNGKYLFDMGQNFAGVATLNVKGQAGTKVTMYYGEVLKNGELDMVHNTEHMRSMPGELRFQTDVYFLKGGAREVFTPRFVYHGFQYVQIETDQPLELNVHSLEGLFYSTAFEEAGHFTSSDPMINKLYEAARQSYRSNFLSIPTDCPQREKNGWTADAHISTEIGLWNYQTTEGYRKWLHDVRDAQLPSGAMPGIAPSNGWGYDRPGNEEFTFGPAWGSALGFVTWYMYLYHNDTALVREHYDAFKKYTDAVAKGAEGYLFKHGLDDWMSLVKTPMPLTSTAYFYTDAELVAKMARVLGNKADEQTYSRLADSIRAAFNRTYFDANTGVYKDSTMTALSAAVFHGLASPEAAAKTAAQLSSKVQRSNYHADFGVMGTKYVLPTLSDYGYADVAFRMLTDTGYAGWAHWIANGATTLFEDWPGELSHNHIFFGDYCAWYYKTLAGIRPDEAAPGFQHFYIQPAFVKALNFVKADYASSAGMIKVEWKRKGNSIKLSVEIPSRATVRLPAGMTDDKNATRITLNGQQFDQVVLTPGKYTFNLK
In the case of B4, in test [1], the “ratio PP/QS-21” value was determined as 0.17. Besides, the “QS-17 (PAR %)” value in test [2] amounted to 5.015%. Besides, in test [3], the “Peak57 (PAR %)” value turned out to be 3.194%. Further, the “Peak75 (PAR %)” value in test [4] worked out at 2.458%.

(Values after patent US20240026407A1, “MODIFICATION OF SAPONINS” (GLAXOSMITHKLINE BIOLOGICALS SA, priority 2020, published 2024).)
